Measured values published in article PMC9157509.

Target: AB variant of cytochrome cb562 (forms the disulfide-linked dimer (AB)2) (UniProt P0ABE7)
Assay: solution small-angle X-ray scattering

AB variant of cytochrome cb562 (forms the disulfide-linked dimer (AB)2) (from UniProt P0ABE7 23-128)
stoichiometry N: 2
